The text below walks through data of article PMC6237275.

For the test, the target named is His–CtBP1 (UniProt Q13363). The experiment in a line: SEC. (In gel filtration, larger molecules generally elute earlier.)

Consider “His–CtBP1 (from UniProt Q13363 1-440) (natural protein)”, for which the stoichiometry N (commonly the number of molecules, sites or subunits per partner or assembly) turned out to be 2.
